Earlier results as cited in publication PMC11854596.

Biological target: 53BP1 BRCT (Homo sapiens) (UniProt Q12888)
Sequence (Q12888 1714-1972): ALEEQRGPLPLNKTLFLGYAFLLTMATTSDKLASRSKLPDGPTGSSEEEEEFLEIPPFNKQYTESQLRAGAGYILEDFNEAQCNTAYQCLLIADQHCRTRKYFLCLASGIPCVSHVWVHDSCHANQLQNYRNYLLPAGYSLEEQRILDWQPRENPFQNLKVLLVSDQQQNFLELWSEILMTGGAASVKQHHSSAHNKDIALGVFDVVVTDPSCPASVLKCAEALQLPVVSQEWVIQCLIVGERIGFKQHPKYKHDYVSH

Substance: γH2AX (from UniProt P16104)
- Kd: 2.7 µM
